As usually defined, the EC50 is the concentration at which the effect is half-maximal. The low end stands for a more potent agent, the high end for a less potent agent.

In assay [1] the target is T1, cynomolgus CD137 on cells (cynomolgus macaque, UniProt A9YYE7 24-254).
T1 construct: whole, on cells; also called CHO-K1/cynomolgus CD137 cell line; cynomolgus monkey CD137 on CD3-stimulated primary CD8 T cells
Nature of the assay: flow cytometry, CHO-K1 cells expressing cynomolgus CD137, PE anti-human IgG Fc secondary, MFI (median). Here is the method: Binding studies on CHO-K1 cells lines expressing CD137 were performed by standard flow cytometry-based staining procedures. CHO-K1 cells (generated by Alligator) were transfected with human or cynomolgus macaque CD137. A typical experiment would label approximately 100,000 cells per well, in 96-well plates, with a range of 100 nM to 0.05 nM binding molecule in 50 μL of saline buffer with 2% BSA and 2 mM EDTA, for 30 min on ice, followed by washes and incubation with PE-labeled secondary antibody, goat anti-human IgG Fcγ ([…]), for 20 minutes on ice. Signal from bound molecules was detected using a LSR-II™ or a Symphony A3 flow cytometer (BD Biosciences) and analyzed by FlowJo flow cytometry analysis software. Median fluorescence intensity (MFI-median) of bound molecules on live cells was determined after exclusion of doublets cells. Nonlinear regression analysis to determine EC₅₀ values was performed in GraphPad Prism 6® graphing and statistics software.
(In general: A flow cytometer gives signals particle by particle.)

For assay [2], the target named is T2, human 5T4 on cells (human, UniProt Q13641 32-420).
T2 construct: also called TPBG; hu5T4
T2 sequence: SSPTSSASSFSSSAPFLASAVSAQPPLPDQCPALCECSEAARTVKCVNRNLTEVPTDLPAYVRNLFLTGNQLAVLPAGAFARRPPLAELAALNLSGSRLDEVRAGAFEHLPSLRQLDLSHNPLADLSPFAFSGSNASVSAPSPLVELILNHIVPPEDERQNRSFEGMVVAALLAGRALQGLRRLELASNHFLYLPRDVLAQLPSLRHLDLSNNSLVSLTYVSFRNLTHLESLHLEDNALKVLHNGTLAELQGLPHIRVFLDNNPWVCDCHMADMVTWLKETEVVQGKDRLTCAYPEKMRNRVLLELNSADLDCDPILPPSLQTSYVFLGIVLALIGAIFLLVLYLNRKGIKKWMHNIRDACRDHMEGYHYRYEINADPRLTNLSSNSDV
Kind of assay: flow cytometry, CHO-K1 cells expressing human 5T4, labelled anti-human IgG secondary, MFI (mean). The method, then: Binding studies were performed by standard flow cytometry-based staining procedures two cell lines expressing 5T4:CHO-K1 cells (obtained from Alligator) transduced with human or cynomolgus macaque 5T4 and SKOV-3 human ovarian adenocarcinoma cells which express (human) 5T4. All labeling and washes were performed in U-bottom 96-well plates in saline buffer with 0.1% BSA and 2 mM EDTA. Cell were plated at approximately 100,000 cells per well and incubated with a range of 100 nM to 0.05 nM concentrations of test molecules in […], for 30 minutes on ice. Cells were washed three times then incubated for another 30 min on ice with fluorescently-labeled secondary polyclonal antibody, F(ab′)² goat anti-human IgG (Jackson ImmunoResearch Laboratories). The cells were then washed twice and the samples acquired in a BD LSRII or a Symphony A3 flow cytometer. The sample files were analyzed using FlowJo software; the mean fluorescence intensity (MFI-mean) or median fluorescence intensity (MFI-median) of the live population of cells in each well was calculated after gating on live cells (forward vs side scatter). Nonlinear regression analysis to determine EC₅₀ values was performed in GraphPad Prism 6® graphing and statistics software.

For another assay, the target named is T3, FcγRIIIb (CD16b) (UniProt O75015 17-200, limits assumed).
T3 construct: whole, on cells
Nature of the assay: flow cytometry, CHO cells stably expressing CD16b, fluorescent anti-human IgG secondary, MFI (mean). An excerpt: ALG.APV-210 contains mutations introduced to prevent interaction with Fcγ receptors (FcγR) that could lead to FcγR-mediated T-cell activation or ADCC, ADCP, CDC etc. Binding of ALG.APV-210 was therefore tested on CHO cell transfectants stably expressing the following FcγR: FcγRI (CD64), FcγRIIa (CD32a His131), FcγRIIb (CD32b), FcγRIIIa (CD16a Val158 and CD16a Phe158), and FcγRIIIb (CD16b). Untransfected CHO cells were used as negative control. A control human IgG1 molecule was used as a positive control. Different concentrations of ALG.APV-210 or control IgG1 were incubated with the FcγR-expressing cell lines, washed, and labeled with a secondary anti-human IgG reagent. Binding of ALG.APV-210 and the control IgG1 was detected by flow cytometry.

For the next assay, the target named is human CD137 on cells (human, UniProt Q07011 24-255). Nature of the assay: cell-based or functional assay.
Assay [3] addresses T2, human 5T4 on cells. Kind of assay: flow cytometry, CT26-hu5T4^low cells, streptavidin-PE, normalized MFI of 2 pooled experiments. Here is the method: Prior to the FACS staining, all cell lines were characterized for their 5T4 expression levels using a receptor density kit (Quantum Simply Cellular, anti-human IgG, Bangs Laboratories, Inc). Adherent cell lines were cultured according to their supplier's instructions and were harvested from their cell culture flasks using Trypsin/EDTA, counted in R10 medium in a Burker chamber, and diluted in FACS buffer (PBS+0.5% BSA, 0.05% NaN₃) to a concentration of 4×10⁶ cells/mL. 50 μL (0.20×10⁶) of cell solution was added to a 96-well FACS staining plate (Falcon #351190). Cells were incubated for 20 min in 4° C. with 50 μL of the biotinylated ALG.APV-210 (2× final concentration). The antibodies were added in a serial dilution starting at 20 μg/mL titrating down in a 12 step ½ dilution down to 0.010 μg/mL. Following 2× washing with FACS buffer, cells were incubated for 30 min in 4° C. with 100 μL of a secondary antibody (streptavidin-PE, BD #554061, diluted 1/500). […] Cells were analysed for ALG.APV-210 binding using flow cytometry (FACSVerse) by gating on single cells. MFI values (secondary antibody only subtracted) from 1 out of 2 independent experiments, as well as normalized data and EC₅₀-values of pooled data from 2 experiments were determined and plotted using GraphPad Prism 7, non-linear regression log (agonist) vs. normalized response—variable slope.

Sequence of human CD137 on cells (Q07011 24-255 limits assumed): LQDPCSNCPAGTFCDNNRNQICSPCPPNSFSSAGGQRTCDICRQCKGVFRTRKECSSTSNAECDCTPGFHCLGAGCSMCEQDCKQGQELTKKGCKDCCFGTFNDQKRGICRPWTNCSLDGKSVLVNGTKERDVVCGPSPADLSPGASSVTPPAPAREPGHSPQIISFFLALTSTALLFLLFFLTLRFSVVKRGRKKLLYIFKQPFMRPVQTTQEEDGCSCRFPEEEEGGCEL
T3 sequence (O75015 17-200 limits assumed): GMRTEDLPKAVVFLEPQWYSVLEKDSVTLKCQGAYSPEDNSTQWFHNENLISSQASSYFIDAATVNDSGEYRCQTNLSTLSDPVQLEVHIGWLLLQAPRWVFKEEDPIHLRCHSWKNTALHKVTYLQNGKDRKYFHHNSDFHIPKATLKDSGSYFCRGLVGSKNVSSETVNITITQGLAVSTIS
T1 sequence (A9YYE7 entry or part of it): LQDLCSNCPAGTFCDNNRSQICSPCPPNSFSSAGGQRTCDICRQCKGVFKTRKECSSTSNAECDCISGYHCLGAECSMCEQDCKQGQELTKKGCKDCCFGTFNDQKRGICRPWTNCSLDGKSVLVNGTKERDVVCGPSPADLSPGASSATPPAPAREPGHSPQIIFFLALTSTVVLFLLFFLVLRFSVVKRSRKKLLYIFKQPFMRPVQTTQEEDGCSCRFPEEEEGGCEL

B1: ALG.APV-187 (bispecific antibody)
chain: EVQLLESGGGLVQPGGSLRLSCAASGFTFSHGSMYWVRQAPGKGLEWVSSISSGSGSTYYADSVKGRFTISHDNSKNTLYLQMNSLRAEDTAVYYCARSSYYGSYYSIDYWGQGTLVTVSSGGGGSGGGGSGGGGSGGGGSDIQMTQSPSSLSASVGDRVTITCRASQSISSYLNWYQQKPGKAPKLLIYAASSLQSGVPSRFSGSGSGTDFTLTISSLQPEDFATYYCQQYYDNLPTFGQGTKLEIKSSEPKSSDKTHTCPPCPAPEAAGAPSVFLFPPKPKDTLMISRTPEVTCVVVDVSHEDPEVKFNWYVDGVEVHNAKTKPREEQYNSTYRVVSVLTVLHQDWLNGKEYKCAVSNKALPAPIEKTISKAKGQPREPQVYTLPPSRDELTKNQVSLTCLVKGFYPSDIAVEWESNGQPENNYKTTPPVLDSDGSFFLYSKLTVDKSRWQQGNVFSCSVMHEALHNHYTQKSLSLSPGSGGGGSGGGGSGGGGSPSEVQLLESGGGLVQPGGSLRLSCAASGFTFSSYAMSWVRQAPGKCLEWVSAISGSGGSTYYADSVKGRFTISRDNSKNTLYLQMNSLRAEDTAVYYCARYYGGYYSAWMDYWGQGTLVTVSSGGGGSGGGGSGGGGSGGGGSDIQMTQSPSSLSASVGDRVTITCRASQSISSFLNWYQQKPGKAPKLLIYAASSLQSGVPSRFSGSGSGTDFTLTISSLQPEDSATYYCQQTYGYLHTFGCGTKLEIKR
notes: Optimized ADAPTIR scFv-Fc-scFv homodimer with stabilizing disulfide in the 1210 scFv
As for B1, the response in assay [1] was half-maximal at 1700 pM (EC50). In the assay with human 5T4 on cells [2], it took 5600 pM to reach a half-maximal effect (EC50) and the “Maximum MFI” value was found to be 13500.

B2: ALG.APV-210 (bispecific antibody)
chain: EVQLLESGGGLVQPGGSLRLSCAASGFTFSHGSMYWVRQAPGKGLEWVSSISSGSGSTYYADSVKGRFTISHDNSKNTLYLQMNSLRAEDTAVYYCARSSYYGSYYSIDYWGQGTLVTVSSGGGGSGGGGSGGGGSGGGGSDIQMTQSPSSLSASVGDRVTITCRASQSISSYLNWYQQKPGKAPKLLIYAASSLQSGVPSRFSGSGSGTDFTLTISSLQPEDFATYYCQQYYDNLPTFGQGTKLEIKEPKSSDKTHTCPPCPAPEAAGAPSVFLFPPKPKDTLMISRTPEVTCVVVDVSHEDPEVKFNWYVDGVEVHNAKTKPREEQYNSTYRVVSVLTVLHQDWLNGKEYKCAVSNKALPAPIEKTISKAKGQPREPQVYTLPPSRDELTKNQVSLTCLVKGFYPSDIAVEWESNGQPENNYKTTPPVLDSDGSFFLYSKLTVDKSRWQQGNVFSCSVMHEALHNHYTQKSLSLSPGSGGGGSGGGGSGGGGSPSEVQLLESGGGLVQPGGSLRLSCAASGFTFSSYAMSWVRQAPGKCLEWVSAISGSGGSTYYADSVKGRFTISRDNSKNTLYLQMNSLRAEDTAVYYCARYYGGYYSAWMDYWGQGTLVTVSSGGGGSGGGGSGGGGSGGGGSDIQMTQSPSSLSASVGDRVTITCRASQSISSFLNWYQQKPGKAPKLLIYAASSLQSGVPSRFSGSGSGTDFTLTISSLQPEDSATYYCQQTYGYLHTFGCGTKLEIKR
notes: Optimized ADAPTIR scFv-Fc-scFv homodimer with stabilizing disulfide in the 1210 scFv; also called 5T4-CD137 bispecific antibody
In the case of B2, the binding result with FcγRIIIb (CD16b) is “no binding (tested: 1000 nM)”. Moreover, in the assay with human CD137 on cells, the “EC50 (nM), CD137 reporter assay with CHO/5T4 cells” value was found to be 0.0092 nM; the “EC50 (nM), CD137 reporter assay with H1975 cells” value was determined as 0.037 nM; the “EC50 (nM), CD137 reporter assay with MDA.MB-231 cells” value stood at 0.054 nM; the “EC50 (nM), CD137 reporter assay with TF-1 cells” value was determined as 0.063 nM.

B3: biotinylated ALG.APV-210 (bispecific antibody)
chain: EVQLLESGGGLVQPGGSLRLSCAASGFTFSHGSMYWVRQAPGKGLEWVSSISSGSGSTYYADSVKGRFTISHDNSKNTLYLQMNSLRAEDTAVYYCARSSYYGSYYSIDYWGQGTLVTVSSGGGGSGGGGSGGGGSGGGGSDIQMTQSPSSLSASVGDRVTITCRASQSISSYLNWYQQKPGKAPKLLIYAASSLQSGVPSRFSGSGSGTDFTLTISSLQPEDFATYYCQQYYDNLPTFGQGTKLEIKEPKSSDKTHTCPPCPAPEAAGAPSVFLFPPKPKDTLMISRTPEVTCVVVDVSHEDPEVKFNWYVDGVEVHNAKTKPREEQYNSTYRVVSVLTVLHQDWLNGKEYKCAVSNKALPAPIEKTISKAKGQPREPQVYTLPPSRDELTKNQVSLTCLVKGFYPSDIAVEWESNGQPENNYKTTPPVLDSDGSFFLYSKLTVDKSRWQQGNVFSCSVMHEALHNHYTQKSLSLSPGSGGGGSGGGGSGGGGSPSEVQLLESGGGLVQPGGSLRLSCAASGFTFSSYAMSWVRQAPGKCLEWVSAISGSGGSTYYADSVKGRFTISRDNSKNTLYLQMNSLRAEDTAVYYCARYYGGYYSAWMDYWGQGTLVTVSSGGGGSGGGGSGGGGSGGGGSDIQMTQSPSSLSASVGDRVTITCRASQSISSFLNWYQQKPGKAPKLLIYAASSLQSGVPSRFSGSGSGTDFTLTISSLQPEDSATYYCQQTYGYLHTFGCGTKLEIKR
notes: also called ALG.APV-210 (biotinylated for FACS detection)
In the assay with human 5T4 on cells [3], B3 returned a 50% effective concentration (EC50) of 11000 pM.

The values are drawn from patent publication US20190016816A1 (APTEVO RESEARCH AND DEVELOPMENT, published 2019).
